Biological target: cardiac troponin I (TPNI), mouse, endogenous (mouse (endogenous in heart), UniProt P48787 1-211)
Assay: cell-based or functional assay

Chain of cardiac troponin I (TPNI), mouse, endogenous (P48787 whole entry): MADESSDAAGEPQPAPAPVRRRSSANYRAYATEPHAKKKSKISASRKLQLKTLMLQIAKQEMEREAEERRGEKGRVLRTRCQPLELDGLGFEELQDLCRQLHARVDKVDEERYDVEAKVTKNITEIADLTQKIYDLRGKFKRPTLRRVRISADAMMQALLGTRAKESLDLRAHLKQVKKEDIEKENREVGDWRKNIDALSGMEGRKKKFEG

B1: PDE4D9, mouse, endogenous (enzyme, mouse (endogenous in heart), UniProt Q01063-2 1-678, looked up)
chain: MSIIMKPRSRSTSSLRTTEAVCFDVDNGTSAGRSPLDPMTSPGSGLILQANFVHSQRRESFLYRSDSDYDLSPKSMSRNSSIASDIHGDDLIVTPFAQVLASLRTVRNNFAALTNLQDRAPSKRSPMCNQPSINKATITEEAYQKLASETLEELDWCLDQLETLQTRHSVSEMASNKFKRMLNRELTHLSEMSRSGNQVSEYISNTFLDKQHEVEIPSPTQKEKEKKKRPMSQISGVKKLMHSSSLTNSCIPRFGVKTEQEDVLAKELEDVNKWGLHVFRIAELSGNRPLTVIMHTIFQERDLLKTFKIPVDTLITYLMTLEDHYHADVAYHNNIHAADVVQSTHVLLSTPALEAVFTDLEILAAIFASAIHDVDHPGVSNQFLINTNSELALMYNDSSVLENHHLAVGFKLLQEENCDIFQNLTKKQRQSLRKMVIDIVLATDMSKHMNLLADLKTMVETKKVTSSGVLLLDNYSDRIQVLQNMVHCADLSNPTKPLQLYRQWTDRIMEEFFRQGDRERERGMEISPMCDKHNASVEKSQVGFIDYIVHPLWETWADLVHPDAQDILDTLEDNREWYQSTIPQSPSPAPDDQEEGRQGQTEKFQFELTLEEDCESDTEKDSGSQVEEDTSCSDSKTLCTQDSESTEIPLDEQVEEEAVAEEESQPETCVPDDCCPDT
  TPNI phosphorylation in TAC mice treated with scAAV9-P33 against scAAV9-SC: 2.8 fold

— publication doi:10.1101/2025.11.18.689162 (bioRxiv, 2025)
